Assay results from patent US20260139017A1, “COMPOSITIONS AND METHODS USING REELIN IN ALZHEIMER'S DISEASE” (The General Hospital Corporation, priority 2022, published 2026).

Target: Neuropilin 1 (NRP1), R&D 3870-N1-025 (UniProt O14786)
Experiment: BLI (Octet), biotinylated NRP1 on SA biosensor, 1:1 global fit

Sequence of Neuropilin 1 (NRP1), R&D 3870-N1-025 (O14786 other isoform, or with tags, fused parts or gaps limits assumed): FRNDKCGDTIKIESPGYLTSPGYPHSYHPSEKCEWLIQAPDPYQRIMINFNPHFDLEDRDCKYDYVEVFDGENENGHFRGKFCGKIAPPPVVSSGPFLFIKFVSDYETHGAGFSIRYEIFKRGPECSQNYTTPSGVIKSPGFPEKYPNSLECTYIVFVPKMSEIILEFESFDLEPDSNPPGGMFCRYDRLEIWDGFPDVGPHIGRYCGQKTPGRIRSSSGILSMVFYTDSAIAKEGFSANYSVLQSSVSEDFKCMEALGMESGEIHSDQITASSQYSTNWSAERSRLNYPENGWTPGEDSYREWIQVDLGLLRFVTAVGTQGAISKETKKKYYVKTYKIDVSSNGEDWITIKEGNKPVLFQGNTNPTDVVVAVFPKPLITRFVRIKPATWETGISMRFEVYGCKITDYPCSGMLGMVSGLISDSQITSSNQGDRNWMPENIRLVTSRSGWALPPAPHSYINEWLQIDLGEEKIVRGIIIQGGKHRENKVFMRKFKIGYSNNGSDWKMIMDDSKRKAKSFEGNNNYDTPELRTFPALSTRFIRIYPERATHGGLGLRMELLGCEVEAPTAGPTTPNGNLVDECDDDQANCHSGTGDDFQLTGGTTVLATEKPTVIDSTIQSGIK

Work on “Vascular endothelial growth factor (VEGF) (ligand)” yielded a Kd of 5.53 nM, a koff of 0.0015 s⁻¹ and a kon of 272000 M⁻¹ s⁻¹.
